Assays:
[1] = target: human μ receptor-Rluc (human) (UniProt P35372)
rat HA-μ receptor (rat) = rat HA-μ receptor (rat) (UniProt P33535)
Chain of UniProt P33535 (P33535 whole entry): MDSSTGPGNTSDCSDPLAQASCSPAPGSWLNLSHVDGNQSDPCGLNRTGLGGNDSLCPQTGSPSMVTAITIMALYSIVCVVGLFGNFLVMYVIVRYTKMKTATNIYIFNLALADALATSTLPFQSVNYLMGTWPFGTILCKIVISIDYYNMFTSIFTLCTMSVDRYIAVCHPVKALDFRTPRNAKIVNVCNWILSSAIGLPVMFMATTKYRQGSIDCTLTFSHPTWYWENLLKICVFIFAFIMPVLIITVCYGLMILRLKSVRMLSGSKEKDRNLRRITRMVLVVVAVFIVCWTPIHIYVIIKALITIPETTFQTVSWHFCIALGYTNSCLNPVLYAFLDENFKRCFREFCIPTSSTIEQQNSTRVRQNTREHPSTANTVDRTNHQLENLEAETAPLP

Chain of UniProt P35372 (P35372 whole entry): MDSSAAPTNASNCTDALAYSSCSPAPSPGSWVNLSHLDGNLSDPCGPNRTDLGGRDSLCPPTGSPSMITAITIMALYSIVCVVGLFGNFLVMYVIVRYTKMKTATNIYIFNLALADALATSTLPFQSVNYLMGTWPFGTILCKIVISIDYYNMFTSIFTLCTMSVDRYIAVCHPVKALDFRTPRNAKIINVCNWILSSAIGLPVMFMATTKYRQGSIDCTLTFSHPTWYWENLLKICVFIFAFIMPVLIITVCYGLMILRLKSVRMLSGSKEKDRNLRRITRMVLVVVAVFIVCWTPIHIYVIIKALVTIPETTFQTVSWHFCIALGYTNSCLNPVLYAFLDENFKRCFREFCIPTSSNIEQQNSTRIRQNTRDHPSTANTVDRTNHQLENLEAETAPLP

D-Ala^2, N-MePhe^4, Gly-ol-enkephalin (peptide)
arrestin-3 recruitment to the μ receptor (BRET between human μ receptor-Rluc and arrestin-3-GFP) in HEK 293 cells, EC50 [1]: 1.2 µM | Gi activation (decrease of the BRET signal between Gαi1-RlucII and GFP10-Gγ2) in HEK 293 cells expressing rat HA-μ receptors, EC50 (rat HA-μ receptor (rat)): 390 nM | Gi activation (decrease of the BRET signal between Gαi1-RlucII and GFP10-Gγ2) in HEK 293 cells expressing rat HA-μ receptors, maximum response (BRET ratio) (rat HA-μ receptor (rat)): 12.4 BRET ratio
